In test [1] the target is integrin α5β1, intact, on wild type K562 cells (human (endogenous in K562)) (UniProt P08648). Put plainly: flow cytometry on cells; saturation binding of cRGDfK-TF5WS to K562 cells in L15 with 2 µM 12G10 Fab, which stabilizes the EO state (intrinsic affinity for the EO state); no washing.
Test [2] has as its target integrin αVβ3, intact, on K562 αVβ3 stable transfectants (human) (UniProt P06756). The test is described as follows: flow cytometry on cells; saturation binding of cRGDfK-TF5WS to K562 transfectants in L15 medium with 1% BSA and 1 mM Mn2+, no washing; background MFI measured with 10 mM EDTA and subtracted. Background: In flow cytometry, cells or beads pass a laser one at a time.

Test [3] deals with integrin αVβ5, intact, on K562 αVβ5 stable transfectants (human) (UniProt P06756). The test is described as above.
integrin αVβ5, intact, on K562 αVβ5 stable transfectants (human), sequence (P06756 31-1048, chain 1 of 2): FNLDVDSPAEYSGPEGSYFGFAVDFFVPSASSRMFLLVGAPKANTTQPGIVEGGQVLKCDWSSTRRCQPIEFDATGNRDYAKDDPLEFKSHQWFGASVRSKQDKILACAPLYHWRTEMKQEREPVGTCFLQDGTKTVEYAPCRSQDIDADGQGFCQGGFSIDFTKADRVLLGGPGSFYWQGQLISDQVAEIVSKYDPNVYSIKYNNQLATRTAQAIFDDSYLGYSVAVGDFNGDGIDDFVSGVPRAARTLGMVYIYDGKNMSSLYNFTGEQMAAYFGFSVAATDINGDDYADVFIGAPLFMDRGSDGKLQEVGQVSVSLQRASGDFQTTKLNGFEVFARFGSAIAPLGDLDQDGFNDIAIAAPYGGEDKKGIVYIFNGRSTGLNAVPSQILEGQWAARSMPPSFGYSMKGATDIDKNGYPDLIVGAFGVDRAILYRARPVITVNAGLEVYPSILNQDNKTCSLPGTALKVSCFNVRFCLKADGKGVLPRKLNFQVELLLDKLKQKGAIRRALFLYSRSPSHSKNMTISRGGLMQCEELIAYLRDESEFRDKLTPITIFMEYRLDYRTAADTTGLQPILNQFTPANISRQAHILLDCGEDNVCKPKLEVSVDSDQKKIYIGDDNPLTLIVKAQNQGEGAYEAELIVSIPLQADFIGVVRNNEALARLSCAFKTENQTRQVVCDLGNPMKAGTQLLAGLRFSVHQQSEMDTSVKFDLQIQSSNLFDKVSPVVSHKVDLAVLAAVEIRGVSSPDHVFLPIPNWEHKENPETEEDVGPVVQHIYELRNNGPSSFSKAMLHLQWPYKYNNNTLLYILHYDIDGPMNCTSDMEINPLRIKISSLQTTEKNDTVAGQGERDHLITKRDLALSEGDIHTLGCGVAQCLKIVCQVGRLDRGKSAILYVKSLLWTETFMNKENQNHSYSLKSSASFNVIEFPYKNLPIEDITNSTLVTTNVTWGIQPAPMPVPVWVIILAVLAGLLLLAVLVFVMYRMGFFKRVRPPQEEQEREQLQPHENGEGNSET
integrin αVβ5, intact, on K562 αVβ5 stable transfectants (human), sequence (P18084 24-799, chain 2 of 2, further chain): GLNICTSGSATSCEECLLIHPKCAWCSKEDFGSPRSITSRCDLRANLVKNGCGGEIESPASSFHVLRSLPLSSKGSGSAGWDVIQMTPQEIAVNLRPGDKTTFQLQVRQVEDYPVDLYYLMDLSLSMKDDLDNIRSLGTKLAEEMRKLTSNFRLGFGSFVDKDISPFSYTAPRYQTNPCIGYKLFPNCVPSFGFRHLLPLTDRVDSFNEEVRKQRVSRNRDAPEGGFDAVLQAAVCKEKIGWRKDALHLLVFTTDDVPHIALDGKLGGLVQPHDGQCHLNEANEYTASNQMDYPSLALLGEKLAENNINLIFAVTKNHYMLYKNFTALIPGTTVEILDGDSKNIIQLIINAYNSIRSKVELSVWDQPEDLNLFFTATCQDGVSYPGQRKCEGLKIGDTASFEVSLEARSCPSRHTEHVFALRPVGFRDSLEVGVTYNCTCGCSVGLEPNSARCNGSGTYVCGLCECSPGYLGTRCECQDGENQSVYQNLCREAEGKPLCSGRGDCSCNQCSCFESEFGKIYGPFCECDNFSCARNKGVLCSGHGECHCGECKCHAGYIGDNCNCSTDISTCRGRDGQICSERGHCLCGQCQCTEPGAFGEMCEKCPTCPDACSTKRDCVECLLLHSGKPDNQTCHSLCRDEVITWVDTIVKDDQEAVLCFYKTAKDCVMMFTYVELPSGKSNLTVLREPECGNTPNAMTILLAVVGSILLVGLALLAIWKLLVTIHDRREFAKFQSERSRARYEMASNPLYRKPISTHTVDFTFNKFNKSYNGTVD

integrin αVβ3, intact, on K562 αVβ3 stable transfectants (human), sequence (P06756 31-1048, chain 1 of 2): as the sequence (P06756 31-1048, chain 1 of 2) above
integrin αVβ3, intact, on K562 αVβ3 stable transfectants (human), sequence (P05106 27-788, chain 2 of 2, further chain): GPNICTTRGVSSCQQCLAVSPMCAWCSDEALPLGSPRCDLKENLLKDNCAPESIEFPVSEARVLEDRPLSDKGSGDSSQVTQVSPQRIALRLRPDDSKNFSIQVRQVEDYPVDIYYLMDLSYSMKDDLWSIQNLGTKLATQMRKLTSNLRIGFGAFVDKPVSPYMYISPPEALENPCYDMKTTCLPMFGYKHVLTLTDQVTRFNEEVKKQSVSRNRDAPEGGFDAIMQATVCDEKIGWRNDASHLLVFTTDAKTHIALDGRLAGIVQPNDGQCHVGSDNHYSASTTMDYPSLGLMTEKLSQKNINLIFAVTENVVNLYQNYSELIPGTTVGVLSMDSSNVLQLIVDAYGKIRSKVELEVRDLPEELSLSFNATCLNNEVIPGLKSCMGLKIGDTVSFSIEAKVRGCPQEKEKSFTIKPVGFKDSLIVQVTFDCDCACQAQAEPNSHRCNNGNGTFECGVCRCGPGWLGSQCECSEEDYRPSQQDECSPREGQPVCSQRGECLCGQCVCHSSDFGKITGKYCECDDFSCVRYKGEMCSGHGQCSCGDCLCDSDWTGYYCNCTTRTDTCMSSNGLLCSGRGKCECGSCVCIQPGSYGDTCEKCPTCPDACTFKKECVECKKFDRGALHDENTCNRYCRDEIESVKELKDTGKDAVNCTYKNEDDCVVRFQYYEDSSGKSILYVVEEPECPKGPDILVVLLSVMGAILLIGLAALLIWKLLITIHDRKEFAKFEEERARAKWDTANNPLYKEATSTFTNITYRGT
integrin α5β1, intact, on wild type K562 cells (human (endogenous in K562)), sequence (P08648 42-1049, chain 1 of 2): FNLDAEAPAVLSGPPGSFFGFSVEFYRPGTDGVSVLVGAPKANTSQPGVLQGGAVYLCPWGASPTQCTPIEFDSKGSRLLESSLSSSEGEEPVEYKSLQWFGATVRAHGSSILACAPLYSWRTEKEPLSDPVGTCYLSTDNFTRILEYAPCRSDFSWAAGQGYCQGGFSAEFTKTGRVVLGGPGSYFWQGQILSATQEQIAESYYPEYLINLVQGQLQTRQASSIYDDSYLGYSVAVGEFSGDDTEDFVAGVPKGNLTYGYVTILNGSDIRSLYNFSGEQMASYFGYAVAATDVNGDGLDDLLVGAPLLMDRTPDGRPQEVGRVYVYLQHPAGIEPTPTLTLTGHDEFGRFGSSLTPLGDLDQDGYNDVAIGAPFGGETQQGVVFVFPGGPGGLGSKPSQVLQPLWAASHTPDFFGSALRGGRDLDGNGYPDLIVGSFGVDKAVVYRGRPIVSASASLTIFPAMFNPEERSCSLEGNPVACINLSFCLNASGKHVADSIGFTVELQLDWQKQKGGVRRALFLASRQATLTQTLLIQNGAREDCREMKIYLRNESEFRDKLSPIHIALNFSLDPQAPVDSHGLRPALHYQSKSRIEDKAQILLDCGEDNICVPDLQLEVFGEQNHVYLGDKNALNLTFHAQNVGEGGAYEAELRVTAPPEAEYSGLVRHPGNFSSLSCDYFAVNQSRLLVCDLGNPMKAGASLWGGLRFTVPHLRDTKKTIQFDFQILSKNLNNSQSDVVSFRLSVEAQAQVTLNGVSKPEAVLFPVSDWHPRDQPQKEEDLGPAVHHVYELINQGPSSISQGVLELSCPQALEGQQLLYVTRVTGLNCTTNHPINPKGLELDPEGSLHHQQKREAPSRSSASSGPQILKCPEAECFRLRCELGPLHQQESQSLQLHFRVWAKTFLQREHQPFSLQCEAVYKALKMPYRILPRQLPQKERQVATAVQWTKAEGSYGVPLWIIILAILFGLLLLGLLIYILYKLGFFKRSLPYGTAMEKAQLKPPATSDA
integrin α5β1, intact, on wild type K562 cells (human (endogenous in K562)), sequence (P05556 21-798, chain 2 of 2, further chain): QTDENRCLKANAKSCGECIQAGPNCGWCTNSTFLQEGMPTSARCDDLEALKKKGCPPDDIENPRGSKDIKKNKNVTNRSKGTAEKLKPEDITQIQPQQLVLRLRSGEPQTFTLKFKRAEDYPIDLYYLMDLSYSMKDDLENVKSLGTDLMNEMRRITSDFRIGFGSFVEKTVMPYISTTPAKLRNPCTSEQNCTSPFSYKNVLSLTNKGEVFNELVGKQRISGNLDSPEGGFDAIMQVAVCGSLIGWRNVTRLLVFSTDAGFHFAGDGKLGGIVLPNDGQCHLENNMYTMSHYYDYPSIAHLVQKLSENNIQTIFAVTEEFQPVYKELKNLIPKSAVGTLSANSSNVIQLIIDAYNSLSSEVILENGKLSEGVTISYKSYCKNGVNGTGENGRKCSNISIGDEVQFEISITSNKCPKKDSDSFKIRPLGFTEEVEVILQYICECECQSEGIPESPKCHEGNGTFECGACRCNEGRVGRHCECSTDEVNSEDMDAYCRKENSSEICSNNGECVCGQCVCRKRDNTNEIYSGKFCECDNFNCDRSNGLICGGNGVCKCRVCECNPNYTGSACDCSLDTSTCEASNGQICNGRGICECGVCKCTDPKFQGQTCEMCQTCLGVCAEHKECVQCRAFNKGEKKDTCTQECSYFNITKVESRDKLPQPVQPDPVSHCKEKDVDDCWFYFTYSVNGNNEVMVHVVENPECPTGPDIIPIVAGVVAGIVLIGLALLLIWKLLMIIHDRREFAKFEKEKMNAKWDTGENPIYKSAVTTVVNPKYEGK

Usually Kd stands for the equilibrium constant for the complex coming apart. Lower therefore signals higher affinity. Turning to “cRGDfK peptide with lysine side chain conjugated with TideFluor5WS”, the Kd was 86 nM in test [1], 28.3 nM in test [2] and 23.9 nM in test [3].

(Values after publication PMC9719539, “Single-molecule characterization of subtype-specific β1 integrin mechanics” (Nature Communications, 2022).)
